The source of these data is patent US20030148958A1 (PROCTER AND GAMBLE, published 2003).

Ends that are not written are not given here.

First the molecules themselves.
T1: corticotropin releasing factor 2 receptor
T1 sequence (Q13324 whole entry, species assumed, looked up): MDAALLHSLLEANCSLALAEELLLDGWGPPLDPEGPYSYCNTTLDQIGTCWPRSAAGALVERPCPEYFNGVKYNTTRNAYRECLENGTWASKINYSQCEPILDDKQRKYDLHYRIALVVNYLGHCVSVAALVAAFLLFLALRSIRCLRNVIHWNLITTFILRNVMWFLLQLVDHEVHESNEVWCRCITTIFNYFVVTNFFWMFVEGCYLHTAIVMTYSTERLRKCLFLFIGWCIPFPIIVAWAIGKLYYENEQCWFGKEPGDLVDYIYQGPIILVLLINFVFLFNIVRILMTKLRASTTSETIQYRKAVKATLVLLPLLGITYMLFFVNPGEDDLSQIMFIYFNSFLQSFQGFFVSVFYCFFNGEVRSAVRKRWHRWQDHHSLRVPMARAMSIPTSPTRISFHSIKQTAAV
Throughout, for CRF1R Emax: reference of the scale not given here.
Throughout, for CRF2R Emax: reference of the scale not given here.

One assay addresses T1, corticotropin releasing factor 2 …. The assay can be described thus: cell-based or functional assay.
For the molecule SQEPPISLDLPFYLLREVLEMTKADQLAQQAHSNRKLLDIA-NH2 [SEQ ID NO 96], the “CRF2R EC50” value came to 100 nM and the “CRF2R Emax” value came to 12.5%.
The matching figures for SQEPPISLDLPIQLLREVLEMTKADQLAQQAHSNRKLLDIA-NH2 [SEQ ID NO 100]: 100 nM and 9.85%.
Take SQEPPISLDLPFQLLREVLEMTKADQLAQQAHSNRKLLDIA-NH2 [SEQ ID NO 91]: the “CRF2R EC50” value is 100 nM and the “CRF2R Emax” value turned out to be 7.1%.
On the same counts, the results for IVLSLDVPIGLLQILLEQARARAAREQATTQARILARV-NH2 [SEQ ID NO 9] are 100 nM and 34%.
On the same counts, the results for SQEPPISLDLPTYLLREVLEMTKADQLAQQAHSNRKLLDIA-NH2 [SEQ ID NO 106] are 100 nM and 6.1%.
On the same counts, the results for SQEPPISLDLPLGLLREVLEMTKADQLAQQAHSNRKLLDIA-NH2 [SEQ ID NO 90] are 100 nM and 12.2%.
Consider SQEPPISLDLPLYLLREVLEMTKADQLAQQAHSNRKLLDIA-NH2 [SEQ ID NO 101], for which the “CRF2R EC50” value was 100 nM and the “CRF2R Emax” value worked out at 6.95%.
Consider SQEPPISLDLPTGLLREVLEMTKADQLAQQAHSNRKLLDIA-NH2 [SEQ ID NO 98], for which the “CRF2R EC50” value turned out to be 100 nM and the “CRF2R Emax” value was 5.5%.
On the same counts, the results for SQEPPISLDLPFHLLREVLEMTKADQLAQQAHSNRKLLDIA-NH2 [SEQ ID NO 104] are 100 nM and 4.5%.
On the same counts, the results for SQEPPISLDLPFELLREVLEMTKADQLAQQAHSNRKLLDIA-NH2 [SEQ ID NO 97] are 100 nM and 7.6%.
In the case of SQEPPISLDLPIHLLREVLEMTKADQLAQQAHSNRKLLDIA-NH2 [SEQ ID NO 94], the “CRF2R EC50” value was 100 nM and the “CRF2R Emax” value was 6.15%.
On the same counts, the results for SQEPPISLDLPLHLLREVLEMTKADQLAQQAHSNRKLLDIA-NH2 [SEQ ID NO 102] are 100 nM and 13.5%.
On the same counts, the results for SQEPPISLDLPLQLLREVLEMTKADQLAQQAHSNRKLLDIA-NH2 [SEQ ID NO 95] are 100 nM and 8.25%.
The matching figures for SQEPPISLDLPFGLLREVLEMTKADQLAQQAHSNRKLLDIA-NH2 [SEQ ID NO 103]: 100 nM and 4.85%.
In the case of SQEPPISLDLTIGLLREVLEMTKADQLAQQAHSNRKLLDIA-NH2 [SEQ ID NO 86], the “CRF2R EC50” value came to 100 nM and the “CRF2R Emax” value was 8.1%.
On the same counts, the results for SQEPPISLDLTFGLLREVLEMTKADQLAQQAHSNRKLLDIA-NH2 [SEQ ID NO 88] are 100 nM and 12.6%.
On the same counts, the results for SQEPPISLDLPIGLLREVLEMTKADQLAQQAHSNRKLLDIA-NH2 [SEQ ID NO 93] are 100 nM and 6.4%.
The matching figures for SQEPPISLDLPTQLLREVLEMTKADQLAQQAHSNRKLLDIA-NH2 [SEQ ID NO 105]: 100 nM and 9.15%.
On to SQEIVLSLDVPIGLLREVLEMTKADQLAQQAHSNRKLLDIA-NH2 [SEQ ID NO 7], for which the “CRF2R EC50” value stood at 100 nM and the “CRF2R Emax” value was found to be 19%.
With IVLSLDVPGPLLQILLEQTKQEAAREQATTNARILARV-NH2 [SEQ ID NO 5], the “CRF2R EC50” value worked out at 100 nM and the “CRF2R Emax” value was determined as 12%.
On the same counts, the results for SQEPPISLDLPTHLLREVLEMTKADQLAQQAHSNRKLLDIA-NH2 [SEQ ID NO 99] are 100 nM and 4.35%.
On the same counts, the results for SQEPPISLDLTIHLLREVLEMTKADQLAQQAHSNRKLLDIA-NH2 [SEQ ID NO 87] are 100 nM and 14.7%.
The matching figures for SQEPPISLDLPTELLREVLEMTKADQLAQQAHSNRKIIDIA-NH2 [SEQ ID NO 92]: 100 nM and 15.8%.

The next assay deals with corticotropin releasing factor 1 receptor. The assay can be described thus: cell-based or functional assay.
As to SQEPPISLDLPFYLLREVLEMTKADQLAQQAHSNRKLLDIA-NH2 [SEQ ID NO 96], the “CRF1R EC50” value is 100 nM and the “CRF1R Emax” value worked out at 16.3%.
Consider SQEPPISLDLPIQLLREVLEMTKADQLAQQAHSNRKLLDIA-NH2 [SEQ ID NO 100], for which the “CRF1R EC50” value was found to be 100 nM and the “CRF1R Emax” value was 6.25%.
The matching figures for SQEPPISLDLPFQLLREVLEMTKADQLAQQAHSNRKLLDIA-NH2 [SEQ ID NO 91]: 100 nM and 4%.
As to IVLSLDVPIGLLQILLEQARARAAREQATTQARILARV-NH2 [SEQ ID NO 9], the “CRF1R EC50” value worked out at 100 nM and the “CRF1R Emax” value was found to be 10%.
Regarding SQEPPISLDLPTYLLREVLEMTKADQLAQQAHSNRKLLDIA-NH2 [SEQ ID NO 106], the “CRF1R EC50” value was 100 nM and the “CRF1R Emax” value was found to be 4.8%.
The matching figures for SQEPPISLDLPLGLLREVLEMTKADQLAQQAHSNRKLLDIA-NH2 [SEQ ID NO 90]: 100 nM and 4%.
Turning to SQEPPISLDLPLYLLREVLEMTKADQLAQQAHSNRKLLDIA-NH2 [SEQ ID NO 101], the “CRF1R EC50” value turned out to be 100 nM and the “CRF1R Emax” value was 7.35%.
On the same counts, the results for SQEPPISLDLPTGLLREVLEMTKADQLAQQAHSNRKLLDIA-NH2 [SEQ ID NO 98] are 100 nM and 4%.
Take SQEPPISLDLPFHLLREVLEMTKADQLAQQAHSNRKLLDIA-NH2 [SEQ ID NO 104]: the “CRF1R EC50” value worked out at 100 nM and the “CRF1R Emax” value worked out at 11.1%.
In the case of SQEPPISLDLPFELLREVLEMTKADQLAQQAHSNRKLLDIA-NH2 [SEQ ID NO 97], the “CRF1R EC50” value was 100 nM and the “CRF1R Emax” value worked out at 4.25%.
The matching figures for SQEPPISLDLPIHLLREVLEMTKADQLAQQAHSNRKLLDIA-NH2 [SEQ ID NO 94]: 100 nM and 7.3%.
Consider SQEPPISLDLPLHLLREVLEMTKADQLAQQAHSNRKLLDIA-NH2 [SEQ ID NO 102], for which the “CRF1R EC50” value was 100 nM and the “CRF1R Emax” value stood at 7.8%.
The matching figures for SQEPPISLDLPLQLLREVLEMTKADQLAQQAHSNRKLLDIA-NH2 [SEQ ID NO 95]: 100 nM and 5.55%.
The matching figures for SQEPPISLDLPFGLLREVLEMTKADQLAQQAHSNRKLLDIA-NH2 [SEQ ID NO 103]: 100 nM and 5.75%.
The matching figures for SQEPPISLDLTIGLLREVLEMTKADQLAQQAHSNRKLLDIA-NH2 [SEQ ID NO 86]: 100 nM and 4.6%.
In the case of SQEPPISLDLTFGLLREVLEMTKADQLAQQAHSNRKLLDIA-NH2 [SEQ ID NO 88], the “CRF1R EC50” value amounted to 100 nM and the “CRF1R Emax” value amounted to 11.2%.
As for SQEPPISLDLPIGLLREVLEMTKADQLAQQAHSNRKLLDIA-NH2 [SEQ ID NO 93], the “CRF1R EC50” value was 100 nM and the “CRF1R Emax” value was determined as 5%.
On the same counts, the results for SQEPPISLDLPTQLLREVLEMTKADQLAQQAHSNRKLLDIA-NH2 [SEQ ID NO 105] are 100 nM and 5.2%.
On the same counts, the results for SQEIVLSLDVPIGLLREVLEMTKADQLAQQAHSNRKLLDIA-NH2 [SEQ ID NO 7] are 100 nM and 4%.
As for IVLSLDVPGPLLQILLEQTKQEAAREQATTNARILARV-NH2 [SEQ ID NO 5], the “CRF1R EC50” value worked out at 100 nM and the “CRF1R Emax” value was 9%.
In the case of SQEPPISLDLPTHLLREVLEMTKADQLAQQAHSNRKLLDIA-NH2 [SEQ ID NO 99], the “CRF1R EC50” value is 100 nM and the “CRF1R Emax” value was 4.35%.
In the case of SQEPPISLDLTIHLLREVLEMTKADQLAQQAHSNRKLLDIA-NH2 [SEQ ID NO 87], the “CRF1R EC50” value worked out at 100 nM and the “CRF1R Emax” value amounted to 5.3%.
On the same counts, the results for SQEPPISLDLPTELLREVLEMTKADQLAQQAHSNRKIIDIA-NH2 [SEQ ID NO 92] are 100 nM and 4.6%.
